According to US20180282410A1 (Hoffmann-La Roche, published 2018):

How the values were obtained:
[1] = molecular target: T1, mouse Robo 4 on MS-1 mouse endothelial cells (mouse, UniProt Q8C310 28-1012); experiment: cell-based or functional assay
T1 sequence: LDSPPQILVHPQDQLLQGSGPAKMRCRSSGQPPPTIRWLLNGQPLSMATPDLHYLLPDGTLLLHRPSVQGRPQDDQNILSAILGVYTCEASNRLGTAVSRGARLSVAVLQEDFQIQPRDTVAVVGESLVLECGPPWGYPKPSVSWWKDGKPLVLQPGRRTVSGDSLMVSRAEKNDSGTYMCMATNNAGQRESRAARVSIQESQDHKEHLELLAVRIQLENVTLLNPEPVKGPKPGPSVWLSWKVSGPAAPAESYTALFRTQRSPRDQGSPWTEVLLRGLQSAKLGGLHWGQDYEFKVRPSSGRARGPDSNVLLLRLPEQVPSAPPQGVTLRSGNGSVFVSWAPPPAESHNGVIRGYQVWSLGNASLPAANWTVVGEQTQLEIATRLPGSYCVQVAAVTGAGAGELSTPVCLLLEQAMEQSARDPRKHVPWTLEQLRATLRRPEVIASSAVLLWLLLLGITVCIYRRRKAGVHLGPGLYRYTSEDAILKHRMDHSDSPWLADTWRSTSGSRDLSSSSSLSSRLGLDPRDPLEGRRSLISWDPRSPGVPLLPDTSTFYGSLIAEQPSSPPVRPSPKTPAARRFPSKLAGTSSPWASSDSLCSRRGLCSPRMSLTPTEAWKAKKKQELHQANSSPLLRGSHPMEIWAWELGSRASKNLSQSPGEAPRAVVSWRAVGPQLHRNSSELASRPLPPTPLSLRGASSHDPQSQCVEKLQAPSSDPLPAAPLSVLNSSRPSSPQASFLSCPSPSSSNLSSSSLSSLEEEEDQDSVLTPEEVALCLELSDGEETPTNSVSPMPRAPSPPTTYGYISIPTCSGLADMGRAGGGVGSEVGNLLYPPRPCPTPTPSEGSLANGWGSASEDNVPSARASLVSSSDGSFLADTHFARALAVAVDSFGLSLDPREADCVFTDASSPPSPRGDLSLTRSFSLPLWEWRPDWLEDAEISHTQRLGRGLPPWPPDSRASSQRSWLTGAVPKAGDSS

[2] = molecular target: T2, recombinant human Robo1 antigen (human, UniProt Q9Y6N7 59-886, limits assumed); experiment: ELISA, hybridoma supernatant
T2 construct: limits of the construct and tags are not described in the text; also called human Robol
T2 sequence (Q9Y6N7 other isoform, or with tags, fused parts or gaps limits assumed): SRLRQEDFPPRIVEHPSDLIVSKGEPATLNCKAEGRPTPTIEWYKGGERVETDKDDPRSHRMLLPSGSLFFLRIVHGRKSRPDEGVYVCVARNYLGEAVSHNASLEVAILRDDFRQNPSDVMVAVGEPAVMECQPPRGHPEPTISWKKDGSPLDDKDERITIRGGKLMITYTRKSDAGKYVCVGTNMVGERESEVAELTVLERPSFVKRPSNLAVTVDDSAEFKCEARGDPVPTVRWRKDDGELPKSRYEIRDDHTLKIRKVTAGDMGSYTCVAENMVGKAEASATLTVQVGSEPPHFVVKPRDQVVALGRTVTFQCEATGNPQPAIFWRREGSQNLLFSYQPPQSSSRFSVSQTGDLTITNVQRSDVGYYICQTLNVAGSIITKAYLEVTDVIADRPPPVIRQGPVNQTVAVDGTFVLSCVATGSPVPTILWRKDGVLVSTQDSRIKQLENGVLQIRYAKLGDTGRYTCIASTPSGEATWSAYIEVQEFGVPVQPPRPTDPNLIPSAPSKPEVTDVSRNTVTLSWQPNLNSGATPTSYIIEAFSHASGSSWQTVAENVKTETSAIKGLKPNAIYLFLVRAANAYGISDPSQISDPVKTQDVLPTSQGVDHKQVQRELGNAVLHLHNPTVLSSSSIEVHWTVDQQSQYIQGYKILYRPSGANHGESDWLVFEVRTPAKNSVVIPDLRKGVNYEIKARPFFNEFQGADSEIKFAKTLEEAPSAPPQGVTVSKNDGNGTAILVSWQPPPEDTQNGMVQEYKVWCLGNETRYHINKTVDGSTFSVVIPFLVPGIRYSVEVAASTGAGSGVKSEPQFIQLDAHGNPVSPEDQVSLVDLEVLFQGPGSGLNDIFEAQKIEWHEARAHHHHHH

[3] = molecular target: T3, biotinylated ectodomain of human Robo 4 with C-terminal AcTEV protease site, Avi-tag and 6xHis-tag (human, biotin on the Avi-tag (in vivo biotinylated via co-expression of BirA)); experiment: SPR, BioRad ProteOn XPR36, purified Fab, monovalent affinity; human Robo 4; Fab, monovalent affinity
T3 construct: also called biotinylated human Robo 4
T3 chain: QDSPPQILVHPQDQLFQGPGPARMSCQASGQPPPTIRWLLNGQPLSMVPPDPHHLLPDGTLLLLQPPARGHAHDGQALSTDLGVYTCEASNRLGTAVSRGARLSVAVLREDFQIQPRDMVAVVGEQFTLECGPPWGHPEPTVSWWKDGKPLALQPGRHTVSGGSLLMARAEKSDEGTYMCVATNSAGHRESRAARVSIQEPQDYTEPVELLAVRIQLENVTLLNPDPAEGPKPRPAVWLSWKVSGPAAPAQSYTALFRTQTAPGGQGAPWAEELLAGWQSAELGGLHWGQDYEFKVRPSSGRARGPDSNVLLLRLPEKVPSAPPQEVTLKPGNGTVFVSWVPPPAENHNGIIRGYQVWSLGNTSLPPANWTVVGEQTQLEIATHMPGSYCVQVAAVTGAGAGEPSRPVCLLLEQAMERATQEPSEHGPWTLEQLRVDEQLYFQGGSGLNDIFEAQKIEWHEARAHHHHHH

[4] = molecular target: T4, murine (mu) Robo 4 ECD-PreS-Avi-His (mouse); experiment: SPR, BioRad ProteOn XPR36, purified Fab
T4 construct: also called recombinant murine Robo 4; murine Robo 4
T4 chain: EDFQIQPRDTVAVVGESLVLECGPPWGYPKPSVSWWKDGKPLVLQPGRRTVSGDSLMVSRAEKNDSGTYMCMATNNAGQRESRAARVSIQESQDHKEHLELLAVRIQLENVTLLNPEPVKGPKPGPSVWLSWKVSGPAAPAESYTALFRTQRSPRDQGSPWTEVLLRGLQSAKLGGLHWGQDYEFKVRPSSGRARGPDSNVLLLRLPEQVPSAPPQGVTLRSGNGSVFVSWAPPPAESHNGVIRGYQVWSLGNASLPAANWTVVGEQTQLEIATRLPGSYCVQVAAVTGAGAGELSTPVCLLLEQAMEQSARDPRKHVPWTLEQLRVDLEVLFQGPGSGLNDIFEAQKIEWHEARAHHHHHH

[5] = molecular target: T5, recombinant cynomolgus Robo 4 ECD fused to AcTEV protease recognition site, Avi- and 6xHis-tag (cynomolgus); experiment: SPR, BioRad ProteOn XPR36, purified Fab, monovalent affinity; cynomolgus Robo 4; Fab, monovalent affinity
T5 construct: Biotinylated in the avidity assay
T5 chain: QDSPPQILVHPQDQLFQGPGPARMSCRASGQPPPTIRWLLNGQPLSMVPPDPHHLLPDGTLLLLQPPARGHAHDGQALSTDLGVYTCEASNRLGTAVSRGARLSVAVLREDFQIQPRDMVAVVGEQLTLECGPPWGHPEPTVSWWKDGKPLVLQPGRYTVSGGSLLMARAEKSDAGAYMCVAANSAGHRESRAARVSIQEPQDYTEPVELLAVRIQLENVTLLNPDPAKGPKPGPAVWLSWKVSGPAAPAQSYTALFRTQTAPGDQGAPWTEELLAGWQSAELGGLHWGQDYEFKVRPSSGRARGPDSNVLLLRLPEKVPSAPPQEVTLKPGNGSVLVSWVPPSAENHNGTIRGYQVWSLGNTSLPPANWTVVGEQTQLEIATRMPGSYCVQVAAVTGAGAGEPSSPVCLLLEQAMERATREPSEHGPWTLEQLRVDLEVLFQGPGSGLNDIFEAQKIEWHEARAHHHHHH

B1: Molecule K, 1+1 Fab-CrossFab (VH/VL exchange in CD3 binder, CD3 binder 2C11, Robo 4 binder 01F05) (bispecific antibody)
chain 1: DIQMTQSPSSLPASLGDRVTINCQASQDISNYLNWYQQKPGKAPKLLIYYTNKLADGVPSRFSGSGSGRDSSFTISSLESEDIGSYYCQQYYNYPWTFGPGTKLEIKSSASTKGPSVFPLAPSSKSTSGGTAALGCLVKDYFPEPVTVSWNSGALTSGVHTFPAVLQSSGLYSLSSVVTVPSSSLGTQTYICNVNHKPSNTKVDKKVEPKSCGGGGSGGGGSQVQLKQSGAELVKPGASVKISCKTSVYTFTYGYMHWVEQKPGQGLEWIGRIDPDSGNSMYNQKFQGRATLTRDKSSSTVYMELRSLTSEDSAVYYCARSMRYSGYRDYALDLWGQGTQVTVSSASTKGPSVFPLAPSSKSTSGGTAALGCLVKDYFPEPVTVSWNSGALTSGVHTFPAVLQSSGLYSLSSVVTVPSSSLGTQTYICNVNHKPSNTKVDKKVEPKSCD
chain 2: QLVLTQSPSASASLGASVKLTCTLSSQHSSYGITWLQQHPDKAPKYVMYLKSDGSHTKGADIPDRFSGSSSGVHRYLSISNVQPEDEAIYFCVTYDSTHVFGSGTQLTVLGQPKAAPSVTLFPPSSEELQANKATLVCLISDFYPGAVTVAWKADSSPVKAGVETTTPSKQSNNKYAASSYLSLTPEQWKSHRSYSCQVTHEGSTVEKTVAPTECS
chain 3: EVQLVESGGGLVQPGKSLKLSCEASGFTFSGYGMHWVRQAPGRGLESVAYITSSSINIKYADAVKGRFTVSRDNAKNLLFLQMNILKSEDTAMYYCARFDWDKNYWGQGTMVTVSSASVAAPSVFIFPPSDEQLKSGTASVVCLLNNFYPREAKVQWKVDNALQSGNSQESVTEQDSKDSTYSLSSTLTLSKADYEKHKVYACEVTHQGLSSPVTKSFNRGEC
EC50 of T cell mediated killing of MS-1 cells by murine splenocytes (LDH release, E:T 10:1, 48 and 72 h) [1]: 1.3 nM

B2: 01F09 hybridoma clone (Armenian hamster IgG, supernatant) (antibody, V domains shown)
VH: QIQLQESGPGLVKPSQSLSLTCSVTGYSISSGSLWTWIRQFPGNNLEWMGYISYAGGIDYNPSLTSRISITRDTSRNQFFLQLESVTTQDTATYYCATPGGYPFHFDYWGQGTMVTVSS
VL: QPVLTQSPSASASLGASVKLTCTLNSQFSTYNIGWYQQHRDKPPKYVMFVKGDGGHSKADGIPDRFSGSSSGADRYLTISNIQAEDEAIYFCGADYNNAGQYGCVFGSGTHFTVLG
binding result [2]: no binding

B3: 7G2 Fab (phage display clone, bacterially expressed) (Fab, V domains shown)
VH: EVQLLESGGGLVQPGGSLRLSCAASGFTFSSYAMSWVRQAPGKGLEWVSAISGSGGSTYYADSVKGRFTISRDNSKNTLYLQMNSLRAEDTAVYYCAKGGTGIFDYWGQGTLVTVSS
VL: EIVLTQSPGTLSLSPGERATLSCRASQSVSSSYLAWYQQKPGQAPRLLIYGASSRATGIPDRFSGSGSGTDFTLTISRLEPEDFAVYYCQQGQLPPRTFGQGTKVEIK
notes: also called clone 7G2
Kd [3]: 14.9 nM
binding result [4]: no binding
Kd [5]: 20.5 nM
